Results published in PMC10563079 (Molecules, 2023).
Where two headings read alike, the source gives them in different places. Bridge positions count the residues as written; N and C are the ends. Ends that are not written are not given here. Peptide text beside a SMILES is read from it.

How the values were obtained:
sPHGDH (1-307) = molecular target: T1, sPHGDH (1-307) (Homo sapiens, UniProt O43175); assay: sPHGDH enzyme activity assay (NADH fluorescence); assay type: biochemical
T1 construct: the truncated version of PHGDH (sPHGDH, 1-307); made in house
T1 sequence (O43175 1-307): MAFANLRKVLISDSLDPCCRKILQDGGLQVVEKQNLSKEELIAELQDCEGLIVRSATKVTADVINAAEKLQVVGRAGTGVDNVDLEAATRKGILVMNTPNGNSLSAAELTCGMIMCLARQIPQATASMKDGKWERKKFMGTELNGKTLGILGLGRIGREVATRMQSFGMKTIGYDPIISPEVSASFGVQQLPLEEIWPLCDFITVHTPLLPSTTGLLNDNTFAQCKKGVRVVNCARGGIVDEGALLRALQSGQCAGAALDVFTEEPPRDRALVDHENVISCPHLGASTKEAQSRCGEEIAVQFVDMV
Method: (§1) PHGDH activity in the presence of peptides was measured in 96-well plates (100 μL per well) at 25 °C, through monitoring the NADH fluorescence (excitation at 360 nm and emission at 460 nm) over time. PAST1 and its substrate glutamate were also included in order to prevent product inhibition. In the enzyme assays, protein expression and purification, including the truncated version of PHGDH (sPHGDH, 1-307), the full-length PHGDH (1-533), and PAST1, were carried out as described in our previous papers. To evaluate the effects of peptides on enzyme activity, the peptides were pre-incubated with enzyme samples (sPHGDH 453.3 nM or PHGDH 30.9 nM) in the assay buffer (HEPES 50 mM, pH 7.5, 10 mM MgCl2, and 1 mM EDTA) for 12 h. Then, 1.98 μM PAST1, 1 mM NAD^+, and 30 mM glutamate were added and pre-incubated for 10 min before initiating the enzyme reaction via the addition of the substrate (1 mM 3-PG). Fluorescence signals were recorded for 3 min with the kinetics-reading mode of the Biotek plate reader (Synergy). IC50 values were obtained through fitting the data using a three-parameter Hill model of the graph of log dose against the percentage inhibition from three repeated experiments. For those peptides containing two disulfide bonds, a second step of oxidation reaction was carried out to generate the second disulfide pair. […] The purified Acm-protected peptide was then treated with iodine (I2, 1 wt% in MeOH), dropwise under acidic conditions until the solution became brown.

[1] = molecular target: T2, full-length PHGDH (1-533) (Homo sapiens, UniProt O43175); assay: full-length PHGDH enzyme activity assay (NADH fluorescence); assay type: biochemical
T2 construct: the full-length PHGDH (1-533); made in house
T2 sequence (O43175 1-533): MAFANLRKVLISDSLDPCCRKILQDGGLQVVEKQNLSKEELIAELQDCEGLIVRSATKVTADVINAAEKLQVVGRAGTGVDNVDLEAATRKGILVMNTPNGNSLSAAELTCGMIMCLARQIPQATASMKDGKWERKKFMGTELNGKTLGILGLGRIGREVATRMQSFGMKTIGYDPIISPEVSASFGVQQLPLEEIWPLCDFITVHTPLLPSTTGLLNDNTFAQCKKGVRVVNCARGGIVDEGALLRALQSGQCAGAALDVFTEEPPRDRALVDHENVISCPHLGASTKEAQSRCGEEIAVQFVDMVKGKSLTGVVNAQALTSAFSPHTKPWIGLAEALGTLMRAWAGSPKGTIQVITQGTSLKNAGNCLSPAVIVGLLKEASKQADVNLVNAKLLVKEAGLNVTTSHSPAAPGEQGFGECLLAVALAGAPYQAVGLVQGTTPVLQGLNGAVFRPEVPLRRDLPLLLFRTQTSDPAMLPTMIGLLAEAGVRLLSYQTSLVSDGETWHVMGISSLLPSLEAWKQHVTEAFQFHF
Method: as §1

[2] = molecular target: T3, truncated version of PHGDH (sPHGDH, 1-307) (human, UniProt O43175 1-307, labelled with Monolith NT.115 Protein Labeling Kit RED-NHS (in the MST assay only)); assay: cell-based or functional assay
T3 sequence (looked up): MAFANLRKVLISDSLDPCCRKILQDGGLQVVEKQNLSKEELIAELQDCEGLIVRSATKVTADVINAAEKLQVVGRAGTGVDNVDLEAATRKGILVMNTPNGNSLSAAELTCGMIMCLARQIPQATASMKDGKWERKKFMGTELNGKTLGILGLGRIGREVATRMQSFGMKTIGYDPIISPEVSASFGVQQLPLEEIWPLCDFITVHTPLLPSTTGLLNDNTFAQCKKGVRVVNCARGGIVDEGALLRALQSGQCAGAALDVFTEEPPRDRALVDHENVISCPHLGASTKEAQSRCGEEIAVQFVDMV

[3] = molecular target: T3, truncated version of PHGDH (sPHGDH, …); assay: MST; sPHGDH labelled with RED-NHS, 20 nM final; peptides in 16 points, 1:2 dilutions from 0.5 mM; 50 mM HEPES pH 7.5, 1 mM EDTA, 10 mM MgCl2, 100 mM NaCl, 0.005% Tween 20; incubated 16 h at room temperature; 1:1 binding mode; apparent; details: both partners purified
[4] = molecular target: T4, full-length PHGDH (1-533) (human, UniProt O43175 1-533); assay: cell-based or functional assay
T4 sequence (looked up): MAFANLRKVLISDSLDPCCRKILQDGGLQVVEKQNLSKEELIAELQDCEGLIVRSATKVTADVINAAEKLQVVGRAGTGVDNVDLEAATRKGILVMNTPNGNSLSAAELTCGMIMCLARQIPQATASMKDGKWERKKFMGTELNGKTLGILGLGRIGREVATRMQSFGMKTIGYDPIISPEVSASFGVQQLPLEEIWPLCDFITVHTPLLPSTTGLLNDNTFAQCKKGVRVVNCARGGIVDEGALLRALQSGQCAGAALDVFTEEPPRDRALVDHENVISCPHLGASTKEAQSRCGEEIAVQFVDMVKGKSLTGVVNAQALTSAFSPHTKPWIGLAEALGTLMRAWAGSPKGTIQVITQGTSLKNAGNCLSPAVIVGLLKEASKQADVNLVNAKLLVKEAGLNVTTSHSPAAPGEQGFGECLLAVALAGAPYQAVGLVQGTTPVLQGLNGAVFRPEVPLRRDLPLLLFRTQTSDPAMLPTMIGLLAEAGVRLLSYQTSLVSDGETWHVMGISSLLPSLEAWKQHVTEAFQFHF

[5] = sPHGDH, 12 h pre-incubation, read-out: IC50 Value
[6] = read-out: IC50 value (μM), full-length PHGDH activity
[7] = IC50 value (μM), full-length PHGDH activity

Row | Molecule | IC50 of inhibition of sPHGDH enzyme activity (NADH fluorescence); the pair blocked is the sPHGDH homo-dimer (m1+m1) [2] | Kd [3] | IC50 of inhibition of full-length PHGDH enzyme activity (NADH fluorescence); the pair blocked is the PHGDH homo-oligomer (m2+m2) [4] | also measured
1 | CSCC[C@@H]1NC(=O)[C@H](CO)NC(=O)[C@H](CC(C)C)NC(=O)[C@H]([C@@H](C)O)NC(=O)[C@H](C)NC(=O)[C@H](CC(=O)O)NC(=O)[C@@H]2CCCN2C(=O)[C@H]([C@@H](C)O)NC(=O)[C@@H](NC(C)=O)CSSC[C@@H](C(=O)O)NC(=O)[C@H](CCCCN)NC(=O)[C@H](CCCCN)NC(=O)[C@H](CCC(=O)O)NC(=O)[C@H](CCC(=O)O)NC(=O)[C@H](Cc2c[nH]c3ccccc23)NC(=O)[C@H](CCCCN)NC(=O)CNC(=O)[C@H](CC(=O)O)NC(=O)[C@H](CCCCN)NC1=O [Cyc1-6, C1TPDA TLSMK DGKWE EKKC19] (Ac-CTPDATLSMKDGKWEEKKC-OH; disulfide 1-19) | – | – | – | IC50 (sPHGDH (1-307); [5]): 5.1 ± 0.4 µM; IC50 [1, 6]: 24.6 ± 2.3 µM
2 | CSCC[C@@H]1NC(=O)[C@H]([C@@H](C)O)NC(=O)[C@H](CC(C)C)NC(=O)[C@H]([C@@H](C)O)NC(=O)[C@H](C)NC(=O)[C@H](CCC(N)=O)NC(=O)[C@@H]2CCCN2C(=O)[C@H]([C@@H](C)O)NC(=O)[C@@H](NC(C)=O)CSSC[C@@H](C(=O)O)NC(=O)[C@H](CCCCN)NC(=O)[C@H](CCCCN)NC(=O)[C@H](CCC(=O)O)NC(=O)[C@H](CCC(=O)O)NC(=O)[C@H](Cc2c[nH]c3ccccc23)NC(=O)[C@H](CCCCN)NC(=O)CNC(=O)[C@H](CC(=O)O)NC(=O)[C@H](CCCCN)NC1=O [Cyc1-7, C1TPQA TLTMK DGKWE EKKC19] (Ac-CTPQATLTMKDGKWEEKKC-OH; disulfide 1-19) | – | – | – | IC50 (sPHGDH (1-307); [5]): 5.6 ± 1.2 µM; IC50 [1, 6]: 23.5 ± 2 µM
3 | CSCC[C@@H]1NC(=O)[C@@H]2CSSC[C@H](NC(=O)[C@H](Cc3c[nH]c4ccccc34)NC(=O)[C@H](CCCCN)NC(=O)CNC(=O)[C@H](CC(=O)O)NC(=O)[C@H](CC(C)C)NC1=O)C(=O)N[C@@H](CCCNC(=N)N)C(=O)N[C@@H](CCCCN)C(=O)N[C@@H](CCCCN)C(=O)N[C@H](C(=O)O)CSSC[C@H](NC(C)=O)C(=O)N[C@@H]([C@@H](C)O)C(=O)N1CCC[C@H]1C(=O)N[C@@H](CCC(N)=O)C(=O)N[C@@H](C)C(=O)N[C@@H]([C@@H](C)O)C(=O)N[C@@H](C)C(=O)N2 [Cyc2-2, C1TPQA TAC8ML DGKWC15 RKKC19] (Ac-CTPQATACMLDGKWCRKKC-OH; disulfide 1-19, 8-15) | – | – | – | IC50 (sPHGDH (1-307)): 9.4 ± 1.5 µM; IC50 [1, 7]: 32.9 ± 4 µM
4 | CSCC[C@@H]1NC(=O)[C@@H]2CSSC[C@H](NC(=O)[C@H](Cc3c[nH]c4ccccc34)NC(=O)[C@H](CCCCN)NC(=O)CNC(=O)[C@H](CC(=O)O)NC(=O)[C@H](CC(C)C)NC1=O)C(=O)N[C@@H](CCC(=O)O)C(=O)N[C@@H](CCCCN)C(=O)N[C@@H](CCCCN)C(=O)N[C@H](C(=O)O)CSSC[C@H](NC(C)=O)C(=O)N[C@@H]([C@@H](C)O)C(=O)N1CCC[C@H]1C(=O)N[C@@H](CCC(N)=O)C(=O)N[C@@H](C)C(=O)N[C@@H]([C@@H](C)O)C(=O)N[C@@H](C)C(=O)N2 [Cyc2-6, C1TPQA TAC8ML DGKWC15 EKKC19] (Ac-CTPQATACMLDGKWCEKKC-OH; disulfide 1-19, 8-15) | – | – | – | IC50 (sPHGDH (1-307)): 15 ± 1 µM; IC50 [1, 7]: 47.1 ± 5.2 µM
5 | CTPQATASMKNGSWQEKKC (disulfide 1-19; not fully specified (N-terminus); printed as C_1_TPQA TASMK NGSWQ EKKC_19_, the text names D11N, K13S and E15Q; designed from the dimerization loop of human PHGDH; source: synthetic peptide (GL Biochem, Shanghai; Fmoc solid-phase synthesis, HPLC purified)) [cyclic peptide cyc1-9] | 4.7 µM | 9.8 ± 2.2 µM | – | –
6 | CTPQATLSMKNGSWEQKKC (disulfide 1-19; not fully specified (N-terminus); printed as C_1_TPQA TLSMK NGSWE QKKC_19_, contains R16Q, with A7L, D11N and K13S (peptide numbering); designed from the dimerization loop of human PHGDH; source: synthetic peptide (GL Biochem, Shanghai; Fmoc solid-phase synthesis, HPLC purified)) [cyclic peptide cyc1-12] | 5.6 µM | – | 20.3 µM | –
7 | Ac-CTPQATACMKDGKWCRKKC (disulfide 1-19, 8-15, cyc1-1 with an added intramolecular disulfide C8-C15 (S8C, E15C); designed from the dimerization loop of human PHGDH; source: synthetic peptide (GL Biochem, Shanghai; Fmoc solid-phase synthesis, stepwise disulfide formation, HPLC purified)) [double constrained cyclic peptide cyc2-1] | 12 µM | 3.3 ± 0.8 µM | 37.3 µM | –
8 | Ac-CTPQATACMRDGKWCRKKC (disulfide 1-19, 8-15, cyc2-1 with K10R (peptide numbering); source: synthetic peptide (GL Biochem, Shanghai; Fmoc solid-phase synthesis, stepwise disulfide formation, HPLC purified)) [double constrained cyclic peptide cyc2-3] | 5.2 µM | – | 32.9 µM | –
9 | CTPQATLTMKNGSWEEKKC (disulfide 1-19; not fully specified (N-terminus); printed as C_1_TPQA TLTMK NGSWE EKKC_19_, A7L and S8T combined with D11N, K13S, native E15 kept, E16 (peptide numbering); designed from the dimerization loop of human PHGDH; source: synthetic peptide (GL Biochem, Shanghai; Fmoc solid-phase synthesis, HPLC purified)) [cyclic peptide cyc1-11] | 5.4 µM | 23.1 ± 4.2 µM | 16.2 µM | –
10 | CTPQATLSMKDGKWEEKKC (disulfide 1-19; not fully specified (N-terminus); printed as C_1_TPQA TLSMK DGKWE EKKC_19_, cyc1-1 with A7L and R16E (peptide numbering); designed from the dimerization loop of human PHGDH; source: synthetic peptide (GL Biochem, Shanghai; Fmoc solid-phase synthesis, HPLC purified)) [cyclic peptide cyc1-2] | 6.4 µM | 11.4 ± 3 µM | – | –
11 | CTPDATLSMKDGKWEEKKC (disulfide 1-19; not fully specified (N-terminus); printed as C_1_TPDA TLSMK DGKWE EKKC_19_, cyc1-2 with Q4D (peptide numbering); designed from the dimerization loop of human PHGDH; source: synthetic peptide (GL Biochem, Shanghai; Fmoc solid-phase synthesis, HPLC purified)) [cyclic peptide cyc1-6] | 5.1 µM | 24.8 ± 7.1 µM | – | –
